This passage reports Km results from article PMC5629633.

One may read the Km as the substrate concentration at which the rate is half of its maximum.

The test system of this data set is NC(=O)CC[C@H](N)C(=O)O. The experiment in a line: purified protein. The note with it: pH 8.0, 30 °C, 11 mM MgCl2, co-substrate ATP.

Regarding “Cj1418 (L-glutamine kinase) (Campylobacter jejuni subsp. jejuni NCTC 11168 = ATCC 700819)”, the Km turned out to be 640 ± 60 µM.
